Assay results from US12139520B2 (priority 2020, dated 2024).
Bridge positions count the residues as written; N and C are the ends. Square brackets hold non-standard residues; d marks the D form. Ends that are not written are not given here. Hyp = O=C(O)[C@@H]1C[C@@H](O)CN1; Cit = NC(=O)NCCC[C@H](N)C(=O)O

Target: T1, hAMY3R (human, UniProt P30988)
T1 sequence 1: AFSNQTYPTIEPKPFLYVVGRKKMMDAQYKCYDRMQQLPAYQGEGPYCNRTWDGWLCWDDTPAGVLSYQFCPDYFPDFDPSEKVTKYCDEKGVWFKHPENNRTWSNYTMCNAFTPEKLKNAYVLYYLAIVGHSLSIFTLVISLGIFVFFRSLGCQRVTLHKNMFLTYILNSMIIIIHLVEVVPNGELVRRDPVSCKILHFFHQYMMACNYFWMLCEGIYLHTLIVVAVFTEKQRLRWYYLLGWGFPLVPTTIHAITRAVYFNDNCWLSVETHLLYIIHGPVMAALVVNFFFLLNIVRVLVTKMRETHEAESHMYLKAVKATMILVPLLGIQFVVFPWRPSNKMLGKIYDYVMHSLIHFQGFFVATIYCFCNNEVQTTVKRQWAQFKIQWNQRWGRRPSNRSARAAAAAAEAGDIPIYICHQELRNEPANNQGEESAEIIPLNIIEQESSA
T1 sequence 2: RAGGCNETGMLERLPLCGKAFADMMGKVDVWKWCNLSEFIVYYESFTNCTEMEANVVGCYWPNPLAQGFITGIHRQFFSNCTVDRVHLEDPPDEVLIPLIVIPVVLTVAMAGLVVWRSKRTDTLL
Assay: cell-based or functional assay

| Binder | hAMY3R EC50 (cAMP) |
| --- | --- |
| GCRFGTCTVQ[Cit]LAHQIYQFTDKDKDNVAPRTKISPNG[Hyp]-NH2 (disulfide 2-7 (inferred); ends not checked) [SEQ ID NO: 275] | 0.02 nM |
| GCRFGTCTVQ[Cit]LAHFLYQFTDKDKDNVAPRTKVGSNGY-NH2 (disulfide 2-7 (inferred); ends not checked) [SEQ ID NO: 279] | 0.013 nM |
| GCRFGTCTVQ[Cit]LAHQIYQFTDKDKDNVAPRTNVSPNGY-NH2 (disulfide 2-7 (inferred); ends not checked) [SEQ ID NO: 271] | 0.01 nM |
| GCRFGTCTVQ[Cit]LAHQIYQFTDKDKDNVAPRTKIGPQG[Hyp]-NH2 (disulfide 2-7 (inferred); ends not checked) [SEQ ID NO: 274] | 0.019 nM |
| GCRTGTCTVQ[Cit]LAHQIYQFTDKDKDNVAPRTKIGPNG[Hyp]-NH2 (disulfide 2-7 (inferred); ends not checked) [SEQ ID NO: 277] | 0.058 nM |
| KCNTATCTVQRLAHQIYQFTDKDKDNAAPPTNVGSNG[Hyp]-NH2 (disulfide 2-7 (inferred); ends not checked) [SEQ ID NO: 27] | 0.008 nM |
| GCRFGTCTVQ[Cit]LAHFLYQFTDKDGAIAPRTKIGSQGY-NH2 (disulfide 2-7 (inferred); ends not checked) [SEQ ID NO: 282] | 0.143 nM |
| KCNTATCTVQ[Cit]LAHQIYQFTDKDKDNVAPPTNVGSNG[Hyp]-NH2 (disulfide 2-7 (inferred); ends not checked) [SEQ ID NO: 268] | 0.014 nM |
| GCRFGTCTVQ[Cit]LAHQIYQFTDKDKDNVAPRTNIGPQG[Hyp]-NH2 (disulfide 2-7 (inferred); ends not checked) [SEQ ID NO: 260] | 0.011 nM |
| KCNTATCTVQ[Cit]LAHQIYQATDKDKDNVAPPTNVGSNG[Hyp]-NH2 (disulfide 2-7 (inferred); ends not checked) [SEQ ID NO: 276] | 0.056 nM |
| GCRFGTCTVQ[Cit]LAHQIYQFTDKDKDNVAPRTNVGPQG[Hyp]-NH2 (disulfide 2-7 (inferred); ends not checked) [SEQ ID NO: 267] | 0.007 nM |
| GCRTGTCTVQ[Cit]LAHQIYQFTDKDKDNVAPRTNVGPQG[Hyp]-NH2 (disulfide 2-7 (inferred); ends not checked) [SEQ ID NO: 261] | 0.018 nM |
| KCNTATCTVQ[Cit]LAHQIYQFDKDKDNVAPPTNVGSNG[Hyp]-NH2 (disulfide 2-7 (inferred); ends not checked) [SEQ ID NO: 265] | 0.03 nM |
| GCRFGTCTVQ[Cit]LAHQIYQFTDKDKDNVAPRTNVGPNG[Hyp]-NH2 (disulfide 2-7 (inferred); ends not checked) [SEQ ID NO: 270] | 0.003 nM |
| KCNTATCTVQ[Cit]LAHQIYQFTDKDKDNVAAPTNVGSNG[Hyp]-NH2 (disulfide 2-7 (inferred); ends not checked) [SEQ ID NO: 262] | 0.014 nM |

Next, values leading:

| hAMY3R EC50 (cAMP) | Binder |
| --- | --- |
| 0.013 nM | GCRFGTCTVQ[Cit]LAHQIYQFTDKDKDNVAPRTKVGPQG[Hyp]-NH2 (disulfide 2-7 (inferred); ends not checked) [SEQ ID NO: 259] |
| 0.005 nM | GCRTGTCTVQ[Cit]LAHQIYQFTDKDKDNVAPRTNVGPNGY-NH2 (disulfide 2-7 (inferred); ends not checked) [SEQ ID NO: 269] |
| 0.035 nM | GCRFGTCTVQ[Cit]LAHQIYQFTDKDKDNVAPRTNVSPQG[Hyp]-NH2 (disulfide 2-7 (inferred); ends not checked) [SEQ ID NO: 283] |
| 0.034 nM | GCRTGTCTVQ[Cit]LAHQIYQFTDKDKDNVAPRSNVGPQG[Hyp]-NH2 (disulfide 2-7 (inferred); ends not checked) [SEQ ID NO: 281] |
| 0.007 nM | RCQTSTCTVA[Cit]LAEQIAQYTDKDKDQVAPPTNVGSNS[Hyp]-NH2 (disulfide 2-7 (inferred); ends not checked) [SEQ ID NO: 256] |
| 0.024 nM | GCRTGTCTVQ[Cit]LAHQIYQFTDKDKDNVAPRTNIGPQG[Hyp]-NH2 (disulfide 2-7 (inferred); ends not checked) [SEQ ID NO: 280] |
| 0.006 nM | GCRFGTCTVQ[Cit]LAHFLYQFTDKDKDNVAPRTNVGSNTY-NH2 (disulfide 2-7 (inferred); ends not checked) [SEQ ID NO: 264] |
| 0.016 nM | KCNTATCTVQ[Cit]LAHQIYQFTDKDKDNVAPRTKVGSNGY-NH2 (disulfide 2-7 (inferred); ends not checked) [SEQ ID NO: 257] |
| 0.053 nM | KCNTATCTVQ[Cit]LAEQIYQFTDKDKDNVSPPTNVGSNG[Hyp]-NH2 (disulfide 2-7 (inferred); ends not checked) [SEQ ID NO: 266] |
| 0.01 nM | KCNTATCTVQ[Cit]LAHQIYQFTDKAKDNVAPPTNVGSNG[Hyp]-NH2 (disulfide 2-7 (inferred); ends not checked) [SEQ ID NO: 258] |
| 0.021 nM | GCRTGTCTVQ[Cit]LAHQIYQFTDKDKDNVAPRTNVGPQGY-NH2 (disulfide 2-7 (inferred); ends not checked) [SEQ ID NO: 273] |
| 0.005 nM | GCRFGTCTVQ[Cit]LAHFLYQFTDKDKDNVAPRTNVGPQGY-NH2 (disulfide 2-7 (inferred); ends not checked) [SEQ ID NO: 263] |
| 0.008 nM | KCNTATCTVQRLAHQIYQFTDKDKDNVAPATNVGSNG[Hyp]-NH2 (disulfide 2-7 (inferred); ends not checked) [SEQ ID NO: 28] |
| 0.011 nM | GCRFGTCTVQ[Cit]LAHQIYQFTDKDKDNVAPRTNVSPQGY-NH2 (disulfide 2-7 (inferred); ends not checked) [SEQ ID NO: 278] |
| 0.009 nM | KCNTATCTVQ[Cit]LAHQIYQFTDKDKDNVAPRTEVGSNGY-NH2 (disulfide 2-7 (inferred); ends not checked) [SEQ ID NO: 272] |

Target: hAM1R (human, UniProt Q16602)
Assay: cell-based or functional assay

| Binder | hAM1R EC50 (cAMP) |
| --- | --- |
| GCRFGTCTVQ[Cit]LAHQIYQFTDKDKDNVAPRTKISPNG[Hyp]-NH2 (disulfide 2-7 (inferred); ends not checked) [SEQ ID NO: 275] | > 5000 nM |
| GCRFGTCTVQ[Cit]LAHFLYQFTDKDKDNVAPRTKVGSNGY-NH2 (disulfide 2-7 (inferred); ends not checked) [SEQ ID NO: 279] | 241 nM |
| GCRFGTCTVQ[Cit]LAHQIYQFTDKDKDNVAPRTNVSPNGY-NH2 (disulfide 2-7 (inferred); ends not checked) [SEQ ID NO: 271] | 96.6 nM |
| GCRFGTCTVQ[Cit]LAHQIYQFTDKDKDNVAPRTKIGPQG[Hyp]-NH2 (disulfide 2-7 (inferred); ends not checked) [SEQ ID NO: 274] | 877 nM |
| GCRTGTCTVQ[Cit]LAHQIYQFTDKDKDNVAPRTKIGPNG[Hyp]-NH2 (disulfide 2-7 (inferred); ends not checked) [SEQ ID NO: 277] | > 5000 nM |
| KCNTATCTVQRLAHQIYQFTDKDKDNAAPPTNVGSNG[Hyp]-NH2 (disulfide 2-7 (inferred); ends not checked) [SEQ ID NO: 27] | > 5000 nM |
| GCRFGTCTVQ[Cit]LAHFLYQFTDKDGAIAPRTKIGSQGY-NH2 (disulfide 2-7 (inferred); ends not checked) [SEQ ID NO: 282] | 3880 nM |
| KCNTATCTVQ[Cit]LAHQIYQFTDKDKDNVAPPTNVGSNG[Hyp]-NH2 (disulfide 2-7 (inferred); ends not checked) [SEQ ID NO: 268] | > 5000 nM |
| GCRFGTCTVQ[Cit]LAHQIYQFTDKDKDNVAPRTNIGPQG[Hyp]-NH2 (disulfide 2-7 (inferred); ends not checked) [SEQ ID NO: 260] | 4160 nM |
| KCNTATCTVQ[Cit]LAHQIYQATDKDKDNVAPPTNVGSNG[Hyp]-NH2 (disulfide 2-7 (inferred); ends not checked) [SEQ ID NO: 276] | > 5000 nM |
| GCRFGTCTVQ[Cit]LAHQIYQFTDKDKDNVAPRTNVGPQG[Hyp]-NH2 (disulfide 2-7 (inferred); ends not checked) [SEQ ID NO: 267] | 2490 nM |
| GCRTGTCTVQ[Cit]LAHQIYQFTDKDKDNVAPRTNVGPQG[Hyp]-NH2 (disulfide 2-7 (inferred); ends not checked) [SEQ ID NO: 261] | > 5000 nM |
| KCNTATCTVQ[Cit]LAHQIYQFDKDKDNVAPPTNVGSNG[Hyp]-NH2 (disulfide 2-7 (inferred); ends not checked) [SEQ ID NO: 265] | > 5000 nM |
| GCRFGTCTVQ[Cit]LAHQIYQFTDKDKDNVAPRTNVGPNG[Hyp]-NH2 (disulfide 2-7 (inferred); ends not checked) [SEQ ID NO: 270] | 1880 nM |
| KCNTATCTVQ[Cit]LAHQIYQFTDKDKDNVAAPTNVGSNG[Hyp]-NH2 (disulfide 2-7 (inferred); ends not checked) [SEQ ID NO: 262] | > 5000 nM |

Results, then the binder that gave them:

| hAM1R EC50 (cAMP) | Binder |
| --- | --- |
| 4320 nM | GCRFGTCTVQ[Cit]LAHQIYQFTDKDKDNVAPRTKVGPQG[Hyp]-NH2 (disulfide 2-7 (inferred); ends not checked) [SEQ ID NO: 259] |
| > 5000 nM | GCRTGTCTVQ[Cit]LAHQIYQFTDKDKDNVAPRTNVGPNGY-NH2 (disulfide 2-7 (inferred); ends not checked) [SEQ ID NO: 269] |
| > 5000 nM | GCRFGTCTVQ[Cit]LAHQIYQFTDKDKDNVAPRTNVSPQG[Hyp]-NH2 (disulfide 2-7 (inferred); ends not checked) [SEQ ID NO: 283] |
| > 5000 nM | GCRTGTCTVQ[Cit]LAHQIYQFTDKDKDNVAPRSNVGPQG[Hyp]-NH2 (disulfide 2-7 (inferred); ends not checked) [SEQ ID NO: 281] |
| > 5000 nM | RCQTSTCTVA[Cit]LAEQIAQYTDKDKDQVAPPTNVGSNS[Hyp]-NH2 (disulfide 2-7 (inferred); ends not checked) [SEQ ID NO: 256] |
| > 5000 nM | GCRTGTCTVQ[Cit]LAHQIYQFTDKDKDNVAPRTNIGPQG[Hyp]-NH2 (disulfide 2-7 (inferred); ends not checked) [SEQ ID NO: 280] |
| 3470 nM | GCRFGTCTVQ[Cit]LAHFLYQFTDKDKDNVAPRTNVGSNTY-NH2 (disulfide 2-7 (inferred); ends not checked) [SEQ ID NO: 264] |
| 2040 nM | KCNTATCTVQ[Cit]LAHQIYQFTDKDKDNVAPRTKVGSNGY-NH2 (disulfide 2-7 (inferred); ends not checked) [SEQ ID NO: 257] |
| > 5000 nM | KCNTATCTVQ[Cit]LAEQIYQFTDKDKDNVSPPTNVGSNG[Hyp]-NH2 (disulfide 2-7 (inferred); ends not checked) [SEQ ID NO: 266] |
| > 5000 nM | KCNTATCTVQ[Cit]LAHQIYQFTDKAKDNVAPPTNVGSNG[Hyp]-NH2 (disulfide 2-7 (inferred); ends not checked) [SEQ ID NO: 258] |
| > 5000 nM | GCRTGTCTVQ[Cit]LAHQIYQFTDKDKDNVAPRTNVGPQGY-NH2 (disulfide 2-7 (inferred); ends not checked) [SEQ ID NO: 273] |
| 1280 nM | GCRFGTCTVQ[Cit]LAHFLYQFTDKDKDNVAPRTNVGPQGY-NH2 (disulfide 2-7 (inferred); ends not checked) [SEQ ID NO: 263] |
| > 5000 nM | KCNTATCTVQRLAHQIYQFTDKDKDNVAPATNVGSNG[Hyp]-NH2 (disulfide 2-7 (inferred); ends not checked) [SEQ ID NO: 28] |
| 155 nM | GCRFGTCTVQ[Cit]LAHQIYQFTDKDKDNVAPRTNVSPQGY-NH2 (disulfide 2-7 (inferred); ends not checked) [SEQ ID NO: 278] |
| > 5000 nM | KCNTATCTVQ[Cit]LAHQIYQFTDKDKDNVAPRTEVGSNGY-NH2 (disulfide 2-7 (inferred); ends not checked) [SEQ ID NO: 272] |
